Source: paper PMC4118823, “Structural and biophysical analysis of interactions between cod and human uracil-DNA N-glycosylase (UNG) and UNG inhibitor (Ugi)” (Acta Crystallographica Section D: Biological Crystallography, 2014)

Key:
[1] = target: T1, human uracil-DNA N-glycosylase (human, UniProt P13051-2 1-304); assay: ITC; Ugi (267-667 µM, syringe) injected into UNG (20-50 µM, cell); 25°C; 20 mM sodium phosphate pH 7.5, 200 mM sodium chloride; single-site binding model; conditions: both partners purified
T1 construct: Human uracil-DNA N-glycosylase (UNG), recombinant; also called hUNG; human UNG; source: expression and purification as described previously (Assefa et al., 2012)
T1 sequence (P13051 94-313): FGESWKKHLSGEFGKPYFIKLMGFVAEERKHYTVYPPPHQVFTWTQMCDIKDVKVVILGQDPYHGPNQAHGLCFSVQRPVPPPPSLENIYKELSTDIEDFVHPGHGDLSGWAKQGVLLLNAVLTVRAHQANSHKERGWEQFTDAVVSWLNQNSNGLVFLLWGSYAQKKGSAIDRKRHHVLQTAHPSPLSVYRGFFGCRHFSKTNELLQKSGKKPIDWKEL

[2] = target: T2, Uracil-DNA N-glycosylase from Atlantic cod (Atlantic cod, UniProt Q9I983 82-301); assay: as above; conditions: both partners purified
T2 construct: Catalytic domain of uracil-DNA N-glycosylase (UNG) from Atlantic cod; Lanes et al., 2002). numbers count on: hUNG numbering; also called cUNG; cod UNG; source: recombinantly produced in E. coli; expression and purification as described previously (Assefa et al., 2012)
T2 sequence (Q9I983 entry or part of it): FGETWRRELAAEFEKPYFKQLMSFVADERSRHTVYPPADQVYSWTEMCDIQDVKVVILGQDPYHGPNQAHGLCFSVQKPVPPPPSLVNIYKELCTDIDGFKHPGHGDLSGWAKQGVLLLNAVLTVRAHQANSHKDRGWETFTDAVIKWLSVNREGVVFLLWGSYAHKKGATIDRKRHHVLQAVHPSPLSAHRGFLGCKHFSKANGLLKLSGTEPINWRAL

B1: uracil-DNA N-glycosylase inhibitor (Ugi) (natural protein)
chain: MTNLSDIIEKETGKQLVIQESILMLPEEVEEVIGNKPESDILVHTAYDESTDENVMLLTSDAPEYKPWALVIQDSNGENKIKML
notes: expressed from a recombinant pRSETb plasmid provided by T. Géoui; source: E. coli BL21 (DE3) pLysS, purified (heating to 95°C, Q-Sepharose, Superdex 75)
- Ka [1]: 1.5e+06 M⁻¹
- Kd [1]: 685 nM
- dH [1]: -2.25 kcal/mol
- stoichiometry N [1]: 0.921
- Ka [2]: 3.25e+07 M⁻¹
- Kd [2]: 31 nM
- dH [2]: -6 kcal/mol
- stoichiometry N [2]: 0.994
